Assay results published in the DeepSol protein solubility set.

Assay: soluble on expression in E. coli; label from the status in PepcDB or PDB records

Sequence	soluble on expression in E. coli
MSVIHPLQNLLTSRDGSLVFAIIKNCILSFKYQSPNHWEFAGKWSDDFDKIQESRNTTAKEQQGQSSENENENKKLKSNKGDSIKRTAAKVPSPGLGAPPIYSYIRNLRLTSDESRLIACADSDKSLLVFDVDKTSKNVLKLRKRFCFSKRPNAISIAEDDTTVIIADKFGDVYSIDINSIPEEKFTQEPILGHVSMLTDVHLIKDSDGHQFIITSDRDEHIKISHYPQCFIVDKWLFGHKHFVSSICCGKDYLLLSAGGDDKIFAWDWKTGKNLSTFDYNSLIKPYLNDQHLAPPRFQNENNDIIEFAVSKIIKSKNLPFVAFFVEATKCIIILEMSEKQKGDLALKQIITFPYNVISLSAHNDEFQVTLDNKESSGVQKNFAKFIEYNLNENSFVVNNEKSNEFDSAIIQSVQGDSNLVTKKEEIYPLYNVSSLRKHGEHYSHHHHHH	soluble
MSVPDKFFGRYQLDKSENFDEFLSSKGVNWFVRQMIKLAGLTKIISQNQEAGKYNMENLTSKKNTNYQAWELGKKFEAPGLDGNQHEITFDFKDEILSEHHIRLNEPETSAETYFYTIDDQNQLVMRMENNGIVCRRWFKRVEQK	not soluble
MSVSRYPVAIAGAGPAGSALALALQAQGVEALLLDRPLAQPFRIGESATPDVAGLLERLGAGHALDGQPGYHGNLSLWGSESPRLDHFLYRGRGHGWHLDRAGFDHALRQEAMARGVAVLGESGVDAIAPAAGGWRLRVRGLGEVEARVVVDAGGRRSPLAARLGISRCRLDRLQALACRVDGPGQLSGYSLVESAPYGWWYAAALPDGRALATLMTDQDLARELGLEHPANFLAAWRATRLLSERLPPPQRIDAAHAFAAHSGCVARAAGPGWICVGDALMGLDPLTSSGIACALGDALAAAPAIVAMLDGELAPARAYAKRADDCFRRYLAERRRHYRQENRWPEQPFWQRRAFSPAALAVPALEHHHHHH	not soluble
MSVTKLNNGKWQARVSYKDDDGNYKSVTHLEKRKTDAVEWETKTKNALLEGADLSRSTESLKHYFLDWIRIYKTDGVSRHTHELYMGNWRHIAAYFKDRPMSAIKRPDYQKFLNEFGRSHGIATSHKLHQQVHTAIKDAVADGILKRDFAYKAHVTGRPPKPVEEKYLTLSDYKKLRKYLIKTADYDHMTMLMMLFQLETGTRFEEAAGLTWDNLDLNNGIVHIKQQWDARRQTFRPTKGNGQADGDITIGPAYCRFMRSYRSTQKDYLELHEMKNPKNLVFWSKLGKIVGNGNANEELGRICNRLKINKVTTHAMRHTHASILILNHESLPYVQHRLRHQKLETTVNTYVHLIEEENGVSDKKATELMDEGF	not soluble
MSYEMNSLFSSNQQPLGGGPPPQQQSQQQQQPPQSLWSLQQFSQMGAPDNFGNHAVPFMPTLGMLNQYQNPHPLQMVPPQPLVTPSQVLPPSMAEQQRADTIHGFGVLTWLSAKAGLITCKDKMIISFQLKDFCDQMLNDLTSVLRVGFTLSFHAALNETSEYTATIVSPIYGPDADVLFANSQEVDLEAANPTPPNSKDAYSPALEQKAIPALLAIFQRHGLQQIQLSRSFSLHSQMSNCGDDELFRYVGTSSLKRRQFVERRTHLFRLQNDDSIILQYPAVYQAVYQLASYLLRRGGATSIQSLFDYYGSPDIMPEVRSHTGEGRQDFLNLLTAHNWVFALFPNRTYVSVRRNLPNYDYVGFIKQHFQEMDITRSQQMAYGQPPRGIQRTMSAQMGSSFATGRPQNLLMQHQHAMTPAATRSGSLWDSQSSLSQSGNSGDQWSPLFSPSTWSNNTNANPRLTSLTPLSSMNETLLSGVNYNSLLAMPPSAKNERSIGVQADDFLDRMSYNPIGRTGCTCQCQCGRGGAAIIGNTRGSSSRASGGSASPPSADGASQIDRFSPSNHAGSIGDRTLTAAALGVGLVDQQPAAPNHDGSANQPQRYYDPFGTADLLNGTRLNSLRIGN	not soluble
MSYSDLLRELAAAHAISSSYSGFGGAHVEVSDDTLVKTLRSLGVCFGNEDEPATDHEPLTGPMPSEDQIRYALQQRYDAEATRPLPRCVVAVEGDPYVFNVHVHDGAPADITITLEDGSTAEVTQVENWAPPREVDGITWGEASFQLPSDLPLG	not soluble
MSYSPPQPPQRQYSSTLNVDCVDGVYRSQQQVSPLTKQVNHLAYEIPKNKYANNPWNYAPEFLKVFGDLRVHIGGKAVFDCVLLGSPRPRVCWLFNEDKLRFSDVIIEDTADVCRLTIPYVQMHHFGTFTVLCENEVGRATAQAELLPLYE	not soluble
MTAAATTTVSTAAAMQTAALASLYSQAAVAIINNKGDVGKALKDLGTSDTVKQIVTSALTAGALNQMGADIAQLNSKVRTELFSSTGNQTIANLGGRLATNLSNAGISAGINTAVNGGSLKDNLGNAALGALVNSFQGEAASKIKTTFSDDYVAKQFAHALAGCVSGLVQGKCKDGAIGAAVGEIVAESILGGRNPATLSDAEKHKVISYSKIIAGSVAALNGGDLEHHHHHH	not soluble
MTAFIKFDGKKSSDFDLRIINDVEHDSSFYDVDQVKVPGRDGVVLKDNKRLEAIERSYPLRLYSKRRLTEVETDISNWLNVKGWKDLELSWEPDYIYKATHITPFSIKEVLRNFGRLKINFLIHPIKYLKTGKQEVPLVNGGTLQNPGNVQAKPILKIKGTGNGILTINDFETGLENVQSELVIDMERHLVYKDVLSAWDNIVRTERHRMPLFDVGQNKISWTGSFTITAVPNWGVKV	soluble
MTAGPQAHGHAPQTAGLAALEARLRQDLAWLELPAKPWTLPHALDGQPVLDVAIIGGGMAGLAAATALKHLGIGAVVFDRAPEGYEGPWATTARMETLRSPKQLTGPALGLPALTFRAWFEAQFGADAWETLDKIPRLQWMDYLRWYRRVLQLEVRNAHHVRTVQPRADGAVELTLDTPDAAGQRVLARRVVLATGRDGLGGPAVPAFAHRLPHRWWAHSSDAMDYGALAGKRVGVIGAGASAMDSAATALEAGAASVDLLIRRPDLPRINKGKGAGSPGLVHGHQHLPDAWKWRIRHYINAEQVPPPRGSTLRVSRHPNARFNLGCPVLGVDEHNGALHVTTPKGVFRLDFLIFSTGFRLDWAARPEFSALAPHVRLWRDRYTPRPGEEDAELSDSPDLGPAFELREKTPGQLPGLSRVHCFCYPASLTHGSVSGDIPAISEGARRLAQGIAGLLYQEDIEGHYAAMQAYAEPEIFGDEWTPAPPPQSEPAAAAASPAREAARLEHHHHHH	not soluble
MTALGLIETKGLLAAVEAADAMLKAADVRLLEKNLASGGLVTITVAGEVSAVRAAVDAGVSAIRRVNAASLVSEHVIARPDEGVSRVVSLVPPAAVPPAAPPVQAPAGDSGAQQPVQEAAEAEPQTGSTVEEQTPAAVEASPAPAAAAPRTETVRYEISQLKKMNVSRLRQVARGVSGLSIPREAVKSANKKDLIDAIINSYRQIEE	not soluble
MTAQDYLNGKLAAANGPLADDWKNLKELWEKKLWHQLTVLTRSLVKKPQFVASTDMHEFYRLFVAEWELRVNPLQLVEICISIAQNIATKDKQKSMEFLSKIGNVINKDKIAVARLHTGEIEARLENKDKNGQIIDLKSIRTQIDSTQHEVDSLVGVTEVHAPFYRVSSLYLREVGDFAGYYREALRYLGVEDANNLTTEQKQVHAVLLGFAALLGENVHNFGELLAHPILKSLEGTRERWIVDVLLAFNSGDLTRFFSLEGDWGGWDDLKKQKDFLTAKIRLMAVMELAVSRPTKARSVSFKEIATKCQIPFDEVEFLVMKALSKDLIRGDINQVEQVVYVTWVQPRVLDNPQIMQMATRISAWRNDVNSMEGIVSKEAREILTQN	not soluble
MTATEPTEKILPSPDYVQSLARGLAVIRCFDHRNQRRTLSDVARATDLTRATARRFLLTLVELGYVATDGSAFWLTPRVLELGYSYLSSLSLPEVAQPHLEKLSHKVHESSSVSILDGADIVYVARVPVSRIMTVGITIGTRLPAYATSMGRVLLAGLPDDELDAYLEKLDIQRLTERTITARDELKAAILAVRADGICVLDQELEAGLRSMAAPIRGASGLTVAAVNISTPAARYSLEDLHSDLIPSLRVTATDIEQDLATVNR	soluble
MTATIQNEKVIVSISDKGAELQSVRLKEDNTEYLWQGDSTYWGRRAPILFPIVGRLVDNTYYVDGKPYSLTQHGFARDLTFFVKEQSETKITYIVTSNEETLKKYPYEFELLVSYELNGQSVHITYEVNNPTSKEMFFSIGAHPGFNFPLLDGESFTDYHLSFNGSERLETSVLEGPYLSNKKQLIAENTTELPLTYDLFKNDALIFEHMNTNEISIRSHKHNKFVKVEFDGFPFVGVWTPGDNAPFLCIEPWYGIADEVNPAKDFKNKKGIQSLQANETFTCRYSITIGLEHHHHHH	soluble
MTATPVLALSEFQGAPAPIAGEQNAAPGDEAEEAAPEERTPLEIPMPDPLVDRTAVELKDDEIAAPDVVEPVEVLTDVSKIPVPVARMRELIVEAAASGDIERLRPLLGKGPTQTQVTATAGEDDPIAALKSLSGDQDGIEILAILLDVMSTGFVLADKGTPEEAYVWPYFAEKPLSSLTAPEKVDLFRLVTAGDFAGMEEFGTYNFYRVGITPDGKWKFFVAGD	not soluble
MTATSNSAPLAGGSLSSSATAQPPQPPPGHQQQHPLPQIYDSQMQYYYGSSMPNQPIPTYTAQNGAPQQFGTPPYYQDANGQFGQVPAQQQMMTAGHPYFYMAQPQQGGQHVAQSGQPQIFYYQQPLGQMAQQAAPMYFHPMQAASTPMLSEQMSMMPQIQSTNPQQSEQLRKSGAQISTTRTVPLTSSTPLPTSREYETVQRDRNRNSQSRYQCPIEHDDLPIDEISKITIDNHNDDTMSAEKENRFNKNRVEKLGRRGFAKPEVDSQLPHNFKTRLCMTHAAGINPCALGARCKFAHGLKELRASDIPTRYPNNKYKTKLCKNFARGGSGVCPYGLRCEFVHPSDTEFQNIPPYQRKMVEEHDSIPEDYVVARYQPRFMHTSGKATTPTKVTLKQRNVAGSMMCLSNTGRDLEAGGDFNHPEINENDLPPHLRRIRRGNPPVTRSRPSFSTKWTSVENLGLRGHY	not soluble
MTAVVNIAAYKFVSIANPADLREPMLEQAGQRQLKGTVLLAPEGINLFLAGAADAIEGFLRWLRADARFADLQAKYSESARMPFRKLLVKVKREIIRMDHPAIRPEAGRAPAVDAATLRRWLAQGRDDQGRELVMLDTRNAFEVEVGTFRGALDWRIERFTQFPQAVRDNQAALAGKTVVSFCTGGIRCEKAAIYMAEAGIEHVYQLEGGILKYFEETDGAGFDGACFVFDERVALDAALAPQALEHHHHHH	soluble
MTDAAIAEKDLGNAAYKQKDFEKAHVHYDKAIELDPSNITFYNNKAAVYFEEKKFAECVQFCEKAVEVGRETRADYKLIAKAMSRAGNAFQKQNDLSLAVQWFHRSLSEFRDPELVKKVKELEKQLKAAERLAYINPELAQEEKNKGNEYFKKGDYPTAMRHYNEAVKRDPENAILYSNRAACLTKLMEFQRALDDCDTCIRLDSKFIKGYIRKAACLVAMREWSKAQRAYEDALQVDPSNEEAREGVRNCLRSNDEDPEKAKERSLADPEVQEILRDPGMRMILEQMSNDPGAVREHLKNPEIFQKLMKLRDAGVIQMR	soluble
MTDAALPPLIQQMLQPEFYPHVVEAPVQLYQTHCSYVLLTGPYAYKLKKPVYFGFLDYSTLEKRQHFLQEELRLNQRTAAPLYQQVLAISQAGDRYQFAETEPAAEYVLQMKQFPKGCLFSEQFESGQLDASVMRQLAAVVAEFHTKTWVDDHVRSYGQVAQIRKAFDENYQQTLHYIGGPQTQAQFDTTKAFSDRFFDTKADLFAARLAADKIRECHGDLHLGNLCRWDNQLFLFDCIEFNEPFRFVDTMYDIAFLVMDLDARGRQDLGTAFLNAYAEMSGDWEGLQVLPLYLSRQAYVRAKVTSFLLDDPAIDSDRRQQAFDQAAAYYQLAHAYAQPAQQGELLLLSGLSGSGKSTLGRTIAERQRAIILRSDAVRKHLAGISLLERGGPEIYSPEMSDRTYGRLLYLGLGLAQAGYRVILDAKYDRQAYRGAALTAAQAQQIPIQILHCQASEETLRQRLQARQGDIADATADLLAQQLTAWQDFSEDEQGFVRAIATEKPLTQQLDALGFLEHHHHHH	not soluble
